Test results as given in the supplement of paper PMC10567573.
± gives the standard deviation.

Test: protein stability index of a GFP-peptide fusion (GPS, HEK-293T) (PSI 1-6); higher = more stable
Details: c terminus: a fixed tail appended
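Also: 24-mer peptide tiles fused after GFP, lentivirally expressed, FACS-sorted into six equal bins by GFP/DsRed ratio, decoded by Illumina sequencing, PSI is the read-weighted mean bin number.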

Row | Sequence | protein stability index (treatment: DMSO) | protein stability index (treatment: MLN4924 1 uM, 8 h)
1 | GCASFIYLRPQSNYSSSQDALISV [OR10K2] | 2.65 ± 0.81 | 2.54 ± 0.61
2 | AGTKVFEVPEMSPVTCCDVSSNNR [TLE6] | 4.13 ± 0.26 | 4.17 ± 0.33
3 | LRENVPRVIMIVTDGRPQDSVAEV [MATN2] | 3.088 ± 0.005 | 3.09 ± 0.17
4 | SDSPDAADSTSFDVQLGDIILTAT [PPTC7] | 3.98 ± 0.27 | 4.01 ± 0.18
5 | FSLACSLMGPSRMSLFSLYMVQDQ [M1AP] | 3.19 ± 0.42 | 2.99 ± 0.32
6 | NMEELTEVITAAEFHPHHCNTFVY [PPP2R2B] | 2.38 ± 0.25 | 2.59 ± 0.33
7 | WYSPYAKTLQPTKQPNCSSLFKLK [PLD5] | 2.32 ± 0.21 | 2.79 ± 0.21
8 | GYREDNIPQLEDVSNFLKERTGFS [TPH1] | 3.75 ± 0.24 | 3.99 ± 0.42
9 | VGIFNTVINPMLNPIIYSFRNPDV [OR3A1] | 2.34 ± 0.48 | 3.03 ± 0.83
10 | AIKEMIENCLDAKSTSIQVIVKEG [MLH1] | 2.79 ± 0.19 | 2.74 ± 0.22
